Laboratory results reported in publication PMC6753178.
Where two headings read alike, the source gives them in different places. One block for each molecule: values may come before it.

Key:
[1] = target: human CCR7 wild type (human) (UniProt P32248)
[2] = target: human CCR7 wild type (human) (UniProt P32248); remark: listed apart in the source
CCR7 W114A (human) [3] = target: CCR7 W114A (human) (UniProt P32248)
CCR7 L61A (human) [4] = target: CCR7 L61A (human) (UniProt P32248)
[5] = target: human CCR7 wild type (human) (UniProt P32248); remark: listed apart in the source
CCR7 R54A (human) [6] = target: CCR7 R54A (human) (UniProt P32248)
CCR7 R209A (human) [7] = target: CCR7 R209A (human) (UniProt P32248)
CCR7 R209A (human) [8] = target: CCR7 R209A (human) (UniProt P32248); remark: listed apart in the source
CCR7 E193A (human) = CCR7 E193A (human) (UniProt P32248)
CCR7 E205A (human) = CCR7 E205A (human) (UniProt P32248)
CCR7 W114A (human) [9] = target: CCR7 W114A (human) (UniProt P32248); remark: listed apart in the source
CCR7 L61A (human) [10] = target: CCR7 L61A (human) (UniProt P32248); remark: listed apart in the source
CCR7 Y308A (human) = CCR7 Y308A (human) (UniProt P32248)
CCR7 Y65A (human) = CCR7 Y65A (human) (UniProt P32248)
CCR7 F133A (human) = CCR7 F133A (human) (UniProt P32248)
CCR7 R54A (human) [11] = target: CCR7 R54A (human) (UniProt P32248); remark: listed apart in the source
CCR7 N305A (human) = CCR7 N305A (human) (UniProt P32248)
CCR7 S117A (human) = CCR7 S117A (human) (UniProt P32248)
CCR7 R209A (human) [12] = target: CCR7 R209A (human) (UniProt P32248); remark: listed apart in the source
CCR7 F107A (human) = CCR7 F107A (human) (UniProt P32248)
CCR7 A118S (human) = CCR7 A118S (human) (UniProt P32248)
CCR7 K50A (human) = CCR7 K50A (human) (UniProt P32248)
CCR7 K57A (human) = CCR7 K57A (human) (UniProt P32248)
CCR7 K137A (human) = CCR7 K137A (human) (UniProt P32248)

G protein signaling (BRET cAMP Camyel sensor, CHO-k1 cells transfected with CCR7): logEC50 [1]: -9.4 logEC50 (M)
β-arrestin-2 recruitment (bystander BRET, CHO-k1 cells transfected with CCR7): logEC50 [1]: -7.9 logEC50 (M)
G protein signaling (BRET cAMP Camyel sensor, CHO-k1 cells transfected with CCR7): signal at 100 nM chemokine, normalized to CCL19 [2]: 92%
Transwell migration of stably transfected 300–19 pre-B cells: % specific migration at 10 nM CCL19 (CCR7 W114A (human) [3]): 1%
Transwell migration of stably transfected 300–19 pre-B cells: % specific migration at 10 nM CCL19 (CCR7 L61A (human) [4]): 7.5%
Transwell migration of stably transfected 300–19 pre-B cells: % specific migration at 10 nM CCL19 [5]: 11.6%
Transwell migration of stably transfected 300–19 pre-B cells: % specific migration at 10 nM CCL19 (CCR7 R54A (human) [6]): -0.1%
Transwell migration of stably transfected 300–19 pre-B cells: % specific migration at 10 nM CCL19 (CCR7 R209A (human) [7]): 5%
Transwell migration of stably transfected 300–19 pre-B cells: activity at 10 nM CCL19 relative to WT CCR7 (CCR7 R209A (human) [8]): 42 % of WT
G protein signaling (BRET cAMP Camyel sensor, transfected CHO-k1 cells): -logEC50 (M) of CCL19 (CCR7 E193A (human)): 9.6 -logEC50 (M)
G protein signaling (BRET cAMP Camyel sensor, transfected CHO-k1 cells): FMut, fold change of CCL19 potency compared to WT CCR7 (CCR7 E193A (human)): 3 fold
G protein signaling (BRET cAMP Camyel sensor, transfected CHO-k1 cells): -logEC50 (M) of CCL19 (CCR7 E205A (human)): 9.2 -logEC50 (M)
G protein signaling (BRET cAMP Camyel sensor, transfected CHO-k1 cells): FMut, fold change of CCL19 potency compared to WT CCR7 (CCR7 E205A (human)): 3 fold
G protein signaling (BRET cAMP Camyel sensor, transfected CHO-k1 cells): -logEC50 (M) of CCL19 (CCR7 W114A (human) [9]): 8 -logEC50 (M)
G protein signaling (BRET cAMP Camyel sensor, transfected CHO-k1 cells): FMut, fold change of CCL19 potency compared to WT CCR7 (CCR7 W114A (human) [9]): 13 fold
G protein signaling (BRET cAMP Camyel sensor, transfected CHO-k1 cells): -logEC50 (M) of CCL19 (CCR7 L61A (human) [10]): 8.9 -logEC50 (M)
G protein signaling (BRET cAMP Camyel sensor, transfected CHO-k1 cells): FMut, fold change of CCL19 potency compared to WT CCR7 (CCR7 L61A (human) [10]): 3 fold
G protein signaling (BRET cAMP Camyel sensor, transfected CHO-k1 cells): -logEC50 (M) of CCL19 (CCR7 Y308A (human)): 9.1 -logEC50 (M)
G protein signaling (BRET cAMP Camyel sensor, transfected CHO-k1 cells): FMut, fold change of CCL19 potency compared to WT CCR7 (CCR7 Y308A (human)): 2 fold
G protein signaling (BRET cAMP Camyel sensor, transfected CHO-k1 cells): -logEC50 (M) of CCL19 (CCR7 Y65A (human)): 9 -logEC50 (M)
G protein signaling (BRET cAMP Camyel sensor, transfected CHO-k1 cells): FMut, fold change of CCL19 potency compared to WT CCR7 (CCR7 Y65A (human)): 2 fold
G protein signaling (BRET cAMP Camyel sensor, transfected CHO-k1 cells): -logEC50 (M) of CCL19 (CCR7 F133A (human)): 8.7 -logEC50 (M)
G protein signaling (BRET cAMP Camyel sensor, transfected CHO-k1 cells): FMut, fold change of CCL19 potency compared to WT CCR7 (CCR7 F133A (human)): 1 fold
G protein signaling (BRET cAMP Camyel sensor, transfected CHO-k1 cells): -logEC50 (M) of CCL19 (CCR7 R54A (human) [11]): 7.1 -logEC50 (M)
G protein signaling (BRET cAMP Camyel sensor, transfected CHO-k1 cells): FMut, fold change of CCL19 potency compared to WT CCR7 (CCR7 R54A (human) [11]): 100 fold
G protein signaling (BRET cAMP Camyel sensor, transfected CHO-k1 cells): -logEC50 (M) of CCL19 (CCR7 N305A (human)): 8.6 -logEC50 (M)
G protein signaling (BRET cAMP Camyel sensor, transfected CHO-k1 cells): FMut, fold change of CCL19 potency compared to WT CCR7 (CCR7 N305A (human)): 4 fold
G protein signaling (BRET cAMP Camyel sensor, transfected CHO-k1 cells): -logEC50 (M) of CCL19 (CCR7 S117A (human)): 9.5 -logEC50 (M)
G protein signaling (BRET cAMP Camyel sensor, transfected CHO-k1 cells): FMut, fold change of CCL19 potency compared to WT CCR7 (CCR7 S117A (human)): 1 fold
G protein signaling (BRET cAMP Camyel sensor, transfected CHO-k1 cells): -logEC50 (M) of CCL19 (CCR7 R209A (human) [12]): 8.5 -logEC50 (M)
G protein signaling (BRET cAMP Camyel sensor, transfected CHO-k1 cells): FMut, fold change of CCL19 potency compared to WT CCR7 (CCR7 R209A (human) [12]): 8 fold
G protein signaling (BRET cAMP Camyel sensor, transfected CHO-k1 cells): -logEC50 (M) of CCL19 (CCR7 F107A (human)): 8.9 -logEC50 (M)
G protein signaling (BRET cAMP Camyel sensor, transfected CHO-k1 cells): FMut, fold change of CCL19 potency compared to WT CCR7 (CCR7 F107A (human)): 2 fold
G protein signaling (BRET cAMP Camyel sensor, transfected CHO-k1 cells): -logEC50 (M) of CCL19 (CCR7 A118S (human)): 9.7 -logEC50 (M)
G protein signaling (BRET cAMP Camyel sensor, transfected CHO-k1 cells): FMut, fold change of CCL19 potency compared to WT CCR7 (CCR7 A118S (human)): 2 fold
G protein signaling (BRET cAMP Camyel sensor, transfected CHO-k1 cells): -logEC50 (M) of CCL19 (CCR7 K50A (human)): 8.5 -logEC50 (M)
G protein signaling (BRET cAMP Camyel sensor, transfected CHO-k1 cells): FMut, fold change of CCL19 potency compared to WT CCR7 (CCR7 K50A (human)): 13 fold
G protein signaling (BRET cAMP Camyel sensor, transfected CHO-k1 cells): -logEC50 (M) of CCL19 (CCR7 K57A (human)): 9.2 -logEC50 (M)
G protein signaling (BRET cAMP Camyel sensor, transfected CHO-k1 cells): FMut, fold change of CCL19 potency compared to WT CCR7 (CCR7 K57A (human)): 2 fold
G protein signaling (BRET cAMP Camyel sensor, transfected CHO-k1 cells): -logEC50 (M) of CCL19 (CCR7 K137A (human)): 9.2 -logEC50 (M)
G protein signaling (BRET cAMP Camyel sensor, transfected CHO-k1 cells): FMut, fold change of CCL19 potency compared to WT CCR7 (CCR7 K137A (human)): 3 fold
Molecule: human chemokine CCL19 (from UniProt Q99731 22-98) (ligand)

Transwell migration of stably transfected 300–19 pre-B cells: % specific migration at 10 nM CCL21 (CCR7 W114A (human) [3]): 0.6%
Transwell migration of stably transfected 300–19 pre-B cells: % specific migration at 10 nM CCL21 (CCR7 L61A (human) [4]): 4%
Transwell migration of stably transfected 300–19 pre-B cells: % specific migration at 10 nM CCL21 [5]: 5.1%
Transwell migration of stably transfected 300–19 pre-B cells: % specific migration at 10 nM CCL21 (CCR7 R54A (human) [6]): 0.3%
Transwell migration of stably transfected 300–19 pre-B cells: % specific migration at 10 nM CCL21 (CCR7 R209A (human) [7]): 10.6%
Transwell migration of stably transfected 300–19 pre-B cells: activity at 10 nM CCL21 relative to WT CCR7 (CCR7 R209A (human) [8]): 2.5 fold
G protein signaling (BRET cAMP Camyel sensor, transfected CHO-k1 cells): efficacy at 100 nM CCL21, normalized to WT CCR7 (CCR7 E193A (human)): 45 % of WT
G protein signaling (BRET cAMP Camyel sensor, transfected CHO-k1 cells): efficacy at 100 nM CCL21, normalized to WT CCR7 (CCR7 E205A (human)): 48 % of WT
G protein signaling (BRET cAMP Camyel sensor, transfected CHO-k1 cells): efficacy at 100 nM CCL21, normalized to WT CCR7 (CCR7 W114A (human) [9]): 32 % of WT
G protein signaling (BRET cAMP Camyel sensor, transfected CHO-k1 cells): efficacy at 100 nM CCL21, normalized to WT CCR7 (CCR7 L61A (human) [10]): 44 % of WT
G protein signaling (BRET cAMP Camyel sensor, transfected CHO-k1 cells): efficacy at 100 nM CCL21, normalized to WT CCR7 (CCR7 Y308A (human)): 38 % of WT
G protein signaling (BRET cAMP Camyel sensor, transfected CHO-k1 cells): efficacy at 100 nM CCL21, normalized to WT CCR7 (CCR7 Y65A (human)): 44 % of WT
G protein signaling (BRET cAMP Camyel sensor, transfected CHO-k1 cells): efficacy at 100 nM CCL21, normalized to WT CCR7 (CCR7 F133A (human)): 27 % of WT
G protein signaling (BRET cAMP Camyel sensor, transfected CHO-k1 cells): efficacy at 100 nM CCL21, normalized to WT CCR7 (CCR7 N305A (human)): 53 % of WT
G protein signaling (BRET cAMP Camyel sensor, transfected CHO-k1 cells): efficacy at 100 nM CCL21, normalized to WT CCR7 (CCR7 S117A (human)): 68 % of WT
G protein signaling (BRET cAMP Camyel sensor, transfected CHO-k1 cells): efficacy at 100 nM CCL21, normalized to WT CCR7 (CCR7 R209A (human) [12]): 132 % of WT
G protein signaling (BRET cAMP Camyel sensor, transfected CHO-k1 cells): efficacy at 100 nM CCL21, normalized to WT CCR7 (CCR7 F107A (human)): 76 % of WT
G protein signaling (BRET cAMP Camyel sensor, transfected CHO-k1 cells): efficacy at 100 nM CCL21, normalized to WT CCR7 (CCR7 A118S (human)): 67 % of WT
G protein signaling (BRET cAMP Camyel sensor, transfected CHO-k1 cells): efficacy at 100 nM CCL21, normalized to WT CCR7 (CCR7 K57A (human)): 99 % of WT
G protein signaling (BRET cAMP Camyel sensor, transfected CHO-k1 cells): efficacy at 100 nM CCL21, normalized to WT CCR7 (CCR7 K137A (human)): 43 % of WT
Molecule: human chemokine CCL21 (from UniProt O00585 24-134) (ligand)

G protein signaling (BRET cAMP Camyel sensor, CHO-k1 cells transfected with CCR7): logEC50 [2]: -8.9 logEC50 (M)
G protein signaling (BRET cAMP Camyel sensor, CHO-k1 cells transfected with CCR7): signal at 100 nM chemokine, normalized to CCL19 [2]: 90%
B1: CCL19^CCL21N-term chimera (ligand)
chain: SDGGAQDCCLKYSQRKIPGYIVRNFHYLLIKDGCRVPAVVFTTLRGRQLCAPPDQPWVERIIQRLQRTSAKMKRRSS
